Two molecules from paper PMC6597238, “The GluTR-binding protein is the heme-binding factor for feedback control of glutamyl-tRNA reductase” (eLife, 2019) can be followed below.

Common to all, as to conditions: both partners purified
Assay [1] concerns the target T1, 6xHIS-GluTR1 (glutamyl-tRNA reductase 1) (Arabidopsis, UniProt P42804 62-543).
T1 construct: glutamyl-tRNA reductase 1 (GluTR1), Arabidopsis, encoded by HEMA1; Czarnecki et al., 2011; Wang et al., 2018; source: E. coli BL21, purified (Ni-NTA)
T1 sequence (looked up): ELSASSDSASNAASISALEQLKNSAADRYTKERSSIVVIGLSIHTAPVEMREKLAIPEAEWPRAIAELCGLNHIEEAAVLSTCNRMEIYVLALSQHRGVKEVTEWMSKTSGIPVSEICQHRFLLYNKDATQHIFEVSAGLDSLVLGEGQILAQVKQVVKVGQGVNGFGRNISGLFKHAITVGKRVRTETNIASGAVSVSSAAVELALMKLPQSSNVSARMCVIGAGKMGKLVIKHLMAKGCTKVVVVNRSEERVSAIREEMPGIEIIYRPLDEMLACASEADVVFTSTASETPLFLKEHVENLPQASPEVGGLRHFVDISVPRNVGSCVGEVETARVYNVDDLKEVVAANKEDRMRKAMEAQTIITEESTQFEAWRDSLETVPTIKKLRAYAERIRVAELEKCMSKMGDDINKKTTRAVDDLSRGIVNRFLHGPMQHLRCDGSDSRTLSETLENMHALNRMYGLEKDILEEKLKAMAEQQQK
Nature of the assay: MST; as a3 with addition of 1 µM hemin.

Assay [2] addresses T1, 6xHIS-GluTR1 (glutamyl-tRNA reductase 1). Nature of the assay: MST; 200 nM labeled 6xHIS-GBP-FLUO constant, 6xHIS-GluTR1 titrated from 7.5 µM, PBS, Monolith NT.115; Kd from initial fluorescence quenching; no hemin; n = 2.
Assay [3] has as its target T2, 6xHIS-GluTR1-FLUO (fluorophore-labeled 6xHIS-GluTR1) (Arabidopsis, UniProt P42804 62-543, fluorophore from the RED-NHS (Amine Reactive) protein labeling kit (second generation)).
T2 construct: glutamyl-tRNA reductase 1 (GluTR1), Arabidopsis, encoded by HEMA1; same construct as m1, labeled; m1 after amine-reactive labelling; also called labeled HIS-GluTR; source: E. coli BL21, purified (Ni-NTA), labeled with the RED-NHS protein labeling kit
T2 sequence (looked up): T1 sequence (looked up)
Nature of the assay: MST; as a5 with addition of 1 µM hemin.

The target of assay [4] is T2, 6xHIS-GluTR1-FLUO (fluorophore-labeled …). Nature of the assay: MST; 200 nM labeled 6xHIS-GluTR1-FLUO constant, 6xHIS-GBP titrated from 7.5 µM, PBS, Monolith NT.115; MST signal 1.5 s after turning on the laser; no hemin; n = 2.

B1: 6xHIS-GBP-FLUO (fluorophore-labeled 6xHIS-GBP) (natural protein, Arabidopsis, UniProt Q9LU39 43-317, looked up)
chain: SVSTTLDTPATASTHKPFPAEVSRSIMELSSVGTLSTLTHDGWPLGVGVRFAVDKDGTPVLCLNRSVSPDKRSALHVQLEQCGLRTPQCTIQGSIGRPGDDTVLKRLSATWREKFGEEVKEDSLYVVAVDRVLQMEDFMEDGIWVASSDYKNASPDPLRDIAEDIVNQINANNMEDIFRFCNVYVDLDFVVSETKMIWMDRLGFDLRVWSPRGVYDVRIPFPMEVTDEKGAKSSFNGMSQLAWEVEKSYCPADFNKVKLLKQVVGSSHSHKGGGQ
modifications: fluorophore from the RED-NHS (Amine Reactive) protein labeling kit (second generation)
notes: same construct as m3, labeled; m3 after amine-reactive labelling; also called labeled HIS-GBP; labeled GBP; source: E. coli BL21, purified (Ni-NTA), labeled with the RED-NHS protein labeling kit
As for B1, the Kd in assay [1] was 931 nM; in assay [2], 65 nM.

B2: 6xHIS-GBP (GluTR-binding protein) (natural protein, Arabidopsis, UniProt Q9LU39 43-317, looked up)
chain: B1 chain
notes: Czarnecki et al., 2011; Wang et al., 2018; probably without the transit peptide; source: E. coli BL21, purified (Ni-NTA)
In the case of B2, the Kd amounted to 806 nM in assay [3] and 113 nM in assay [4].

By Kd is commonly meant a measure of binding affinity in units of concentration. The low end stands for a tighter complex, the high end for a looser complex.
